Data reported in patent US20170274062A1 (OURO FINO SAUDE ANIMAL LTDA, published 2017).

B1: Exomyc polyprotein 3, Rrp42-P216A-HSP-NrdF (other)
chain: MGSDNEIVAGIMRDHIINLLKEGKRIDDRGFEDYRPIEIEVGVIEKAEGSALVKLGSTQVLVGIKTSLGEPFPDTPNMGVMTTNVELVPLASPTFEPGPPDERAIELARVIDRGIRESKALNLEKMVIVPGKIVRVVFIDVHVLDHDGNLMDAIGIAAIAALLNARVPKVRYNEETGEVETLDETEPLPVEKIPVPVTFAKIGNILVVDPSLDEELVMDGKITITTDETGHISAVQKSEGGAFKLEEVMYAVETAFKKAEEIRKLILEAVEKAKQLEGQKKAVRKEEELETYNPKDEFNILNPGEISDVLLLDVTPLTLGIETLGGIATPLIPRNTTIPVTKSQIFSTAEDNQTEVTISVVQGERQLAADNKMLGRFNLSGIEAAPRGLPQIEVSFSIDVNGITTVSAKDKKTGKEQTITIKNTSTLSEEEINKMIQEAEENREADALKKDKIETTVRAEGLINQLEKSITDQGEKIDPKQKELLEKQIQELKDLLKEDKTDELKLKLDQIEAAAQSFAQATAQQANTSESDPKADDSNTIDAEIKQDGSGKQDEIKKFTFDLLYKLIELEKDYLYDLYSEVGLAESAIKFSIYNAGKFLQNLGYDSPFSKEETEIEPEIFSQLSARADENHDFFSGNGSSYVMALAEETEDEDWEF
notes: also called Rrp42-HSP-NrdF

Experiments:
[1] = target: T1, Exomyc polyprotein 1, Rrp4-P216B-P36-MHP271; experiment: co-expression in E. coli, co-retention on 500 kDa MWCO tangential filtration, SDS-PAGE
T1 construct: Expressed in E. coli BL21 (DE3) from pMRK-EXOMYC; also called Rrp4-P36-MHP271

[2] = target: B1; experiment: as above

| Binder | binding result [1] | binding result [2] |
| --- | --- | --- |
| Exomyc polyprotein 2, Rrp41-P46-P97R1R2 (other, also called Rrp41-P46-97R1R2) MAEKPEGLKLIDENGRRIDGRKKYELRPIKMEVGVLKNANGSAYIEWGKNKIIAAVYGPRELHPKHLQRPDRAILRVRYNMAPFSVEETKSPGPDRRSIEISKVIKGALEPALILEMFPRTAIDVFIEVLQADAGTRVAGITAASLALADAGIPMRDLVAACAAGKIEGEIVLDLNKEEDNYGEADVPVAIMPLKNDITLLQMDGYLTKDEFIEAVKLAIKGAKAVYQKQREALKEKYLKIAQEVEGSPKHKVSNDSIRIALTDPDNPRWISAQKDIISYVDETEAATSTITKNQDAQNNWLTQQANLSPAPKGFIIAPENGSGVGTAVNTIADKGIPIVAYDRLITGSDKYDWYVSFDNEKVGELQGLSLAAGLLGKEDGAFDSIDQMNEYLKSHMPQETISFYTIAGSQDDNNSQYFYNGAMKVLKELMKNSQNKIIDLSPEGENAVYVPGWNYGTAGQRIQSFLTINKDPAGGNKIKAVGSKPASIFKGFLAPNDGMAEQAITKLKLEGFDTQKIFVTGQDYNDKAKTFIKDGDQNMTIYKPDKVLGKVAVEVLRVLIAKKNKASRSEVENELKAKLPNISFKYDNQTYKVQGKNINTILVSPVIVTKANVDNPGAAKPEAAKPVAAKPETTKPVAAKPEAAKPEAAKPVAAKPEAAKPVAAKPEAAKPVAAKPEAAKPVAAKPEAAKPVATNTGFSLTNKPKEDYFPMTEGSSNQGKKSEGTPNQGKKAEGAPNQGKKAEGTPNQGKKAEGAPSQQSPTTE | binds | binds |
| B1 | binds | – |
